T1: APBA2_1, Q99767
T1 sequence (Q99767 563-664, limits assumed, looked up): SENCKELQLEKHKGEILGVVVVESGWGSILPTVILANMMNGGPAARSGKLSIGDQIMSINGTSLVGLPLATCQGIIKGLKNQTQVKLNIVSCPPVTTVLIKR

T2: APBA3_1, O96018
T2 sequence (O96018 389-490, limits assumed, looked up): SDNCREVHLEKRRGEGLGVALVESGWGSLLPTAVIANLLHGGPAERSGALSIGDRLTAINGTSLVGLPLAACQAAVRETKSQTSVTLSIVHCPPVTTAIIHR

T3: ARHGAP21, Q5T5U3
T3 sequence (Q5T5U3 45-169, limits assumed, looked up): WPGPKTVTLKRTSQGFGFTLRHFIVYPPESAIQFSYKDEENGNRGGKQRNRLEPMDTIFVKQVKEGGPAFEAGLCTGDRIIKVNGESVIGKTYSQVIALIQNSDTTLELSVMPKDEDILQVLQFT

T4: DLG3_1, Q92796
T4 sequence (Q92796 125-227, limits assumed, looked up): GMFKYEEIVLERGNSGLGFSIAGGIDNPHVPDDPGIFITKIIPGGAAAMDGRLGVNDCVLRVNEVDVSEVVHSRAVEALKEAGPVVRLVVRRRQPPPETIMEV

T5: DLG3_2, Q92796
T5 sequence (Q92796 221-321, limits assumed, looked up): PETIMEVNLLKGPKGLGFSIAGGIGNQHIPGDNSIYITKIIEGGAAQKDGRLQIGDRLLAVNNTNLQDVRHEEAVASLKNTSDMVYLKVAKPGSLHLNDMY

T6: DVL3, Q92997
T6 sequence (Q92997 244-331, limits assumed, looked up): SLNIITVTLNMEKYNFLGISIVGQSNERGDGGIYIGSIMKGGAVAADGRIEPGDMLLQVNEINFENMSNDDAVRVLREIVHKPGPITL

T7: FRMPD1, Q5SYB0
T7 sequence (Q5SYB0 52-145, limits assumed, looked up): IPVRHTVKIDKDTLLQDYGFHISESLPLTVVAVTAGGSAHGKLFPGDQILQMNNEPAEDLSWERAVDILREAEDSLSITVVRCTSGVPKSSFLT

T8: GRIP1_5, Q9Y3R0
T8 sequence (Q9Y3R0 568-668, limits assumed, looked up): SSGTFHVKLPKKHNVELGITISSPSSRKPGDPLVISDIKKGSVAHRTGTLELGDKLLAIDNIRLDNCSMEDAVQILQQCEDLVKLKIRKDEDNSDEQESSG

T9: PDZD7_3, Q9H5P4
T9 sequence (Q9H5P4 857-944, limits assumed, looked up): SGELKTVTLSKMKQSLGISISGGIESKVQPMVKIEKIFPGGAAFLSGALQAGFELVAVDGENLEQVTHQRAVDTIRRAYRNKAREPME

T10: SHANK1, Q9Y566
T10 sequence (Q9Y566 658-767, limits assumed, looked up): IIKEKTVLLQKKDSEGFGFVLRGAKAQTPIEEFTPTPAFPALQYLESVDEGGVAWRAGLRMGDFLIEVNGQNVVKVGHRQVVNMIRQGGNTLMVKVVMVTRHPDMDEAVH

T11: SNTB1, Q13884
T11 sequence (Q13884 107-205, limits assumed, looked up): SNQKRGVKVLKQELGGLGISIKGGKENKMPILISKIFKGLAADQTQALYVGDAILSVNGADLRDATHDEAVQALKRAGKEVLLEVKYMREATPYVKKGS

T12: SYNJ2BP, P57105
T12 sequence (P57105 8-110, limits assumed, looked up): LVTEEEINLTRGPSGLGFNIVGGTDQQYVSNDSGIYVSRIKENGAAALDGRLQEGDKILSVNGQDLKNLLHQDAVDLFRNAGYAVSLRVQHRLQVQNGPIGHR

T13: TJP3_3, O95049
T13 sequence (O95049 375-456, limits assumed, looked up): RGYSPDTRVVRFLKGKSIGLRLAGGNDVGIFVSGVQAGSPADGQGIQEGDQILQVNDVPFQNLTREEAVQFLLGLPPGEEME


molecular target: T1, APBA2_1, Q99767; assay: holdup assay; set-up: key: below the threshold = too weak to quantify, mostly under pKd 3.1 to 4; conditions: plain residues with an end cap or a label only (N-terminal biotin on a linker: ado-ado)

Row | pKd | Binder
1 | below the threshold | PLATCDETSI [SEMA4F, O95754]
2 | below the threshold | KPDKQEEFYA [SDC3, O75056]

molecular target: T2, APBA3_1, O96018; assay: holdup assay; set-up: key: below the threshold = too weak to quantify, mostly under pKd 3.1 to 4; conditions: plain residues with an end cap or a label only (N-terminal biotin on a linker: ado-ado)

Row | pKd | Binder
3 | below the threshold | PLATCDETSI [SEMA4F, O95754]
4 | below the threshold | KPDKQEEFYA [SDC3, O75056]

molecular target: T3, ARHGAP21, Q5T5U3; assay: holdup assay; set-up: key: below the threshold = too weak to quantify, mostly under pKd 3.1 to 4; conditions: plain residues with an end cap or a label only (N-terminal biotin on a linker: ado-ado)

Row | pKd | Binder
5 | below the threshold | PLATCDETSI [SEMA4F, O95754]
6 | below the threshold | KPDKQEEFYA [SDC3, O75056]

molecular target: DLG1_2, Q12959; assay: holdup assay; set-up: key: below the threshold = too weak to quantify, mostly under pKd 3.1 to 4; conditions: plain residues with an end cap or a label only (N-terminal biotin on a linker: ado-ado)
Sequence (Q12959 314-412): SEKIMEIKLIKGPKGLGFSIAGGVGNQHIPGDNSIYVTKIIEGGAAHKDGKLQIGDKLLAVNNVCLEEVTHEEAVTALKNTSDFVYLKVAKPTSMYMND

Row | pKd | Binder
7 | 3.92 | PLATCDETSI [SEMA4F, O95754]
8 | below the threshold | KPDKQEEFYA [SDC3, O75056]

molecular target: T4, DLG3_1, Q92796; assay: holdup assay; set-up: key: below the threshold = too weak to quantify, mostly under pKd 3.1 to 4; conditions: plain residues with an end cap or a label only (N-terminal biotin on a linker: ado-ado)

Row | pKd | Binder
9 | below the threshold | PLATCDETSI [SEMA4F, O95754]
10 | below the threshold | KPDKQEEFYA [SDC3, O75056]

molecular target: T5, DLG3_2, Q92796; assay: holdup assay; set-up: key: below the threshold = too weak to quantify, mostly under pKd 3.1 to 4; conditions: plain residues with an end cap or a label only (N-terminal biotin on a linker: ado-ado)

Row | pKd | Binder
11 | 4.3 | PLATCDETSI [SEMA4F, O95754]
12 | 4.05 | KPDKQEEFYA [SDC3, O75056]

molecular target: T6, DVL3, Q92997; assay: holdup assay; set-up: key: below the threshold = too weak to quantify, mostly under pKd 3.1 to 4; conditions: plain residues with an end cap or a label only (N-terminal biotin on a linker: ado-ado)

Row | pKd | Binder
13 | below the threshold | PLATCDETSI [SEMA4F, O95754]
14 | below the threshold | KPDKQEEFYA [SDC3, O75056]

molecular target: T7, FRMPD1, Q5SYB0; assay: holdup assay; set-up: key: below the threshold = too weak to quantify, mostly under pKd 3.1 to 4; conditions: plain residues with an end cap or a label only (N-terminal biotin on a linker: ado-ado)

Row | pKd | Binder
15 | below the threshold | PLATCDETSI [SEMA4F, O95754]
16 | below the threshold | KPDKQEEFYA [SDC3, O75056]

molecular target: GRID2IP_2, A4D2P6; assay: holdup assay; set-up: key: below the threshold = too weak to quantify, mostly under pKd 3.1 to 4; conditions: plain residues with an end cap or a label only (N-terminal biotin on a linker: ado-ado)
Sequence (A4D2P6 272-370): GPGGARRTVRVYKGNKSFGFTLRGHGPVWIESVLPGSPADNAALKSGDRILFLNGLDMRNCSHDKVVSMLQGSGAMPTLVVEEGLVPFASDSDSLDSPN

Row | pKd | Binder
17 | below the threshold | PLATCDETSI [SEMA4F, O95754]
18 | below the threshold | KPDKQEEFYA [SDC3, O75056]

molecular target: T8, GRIP1_5, Q9Y3R0; assay: holdup assay; set-up: key: below the threshold = too weak to quantify, mostly under pKd 3.1 to 4; conditions: plain residues with an end cap or a label only (N-terminal biotin on a linker: ado-ado)

Row | pKd | Binder
19 | below the threshold | PLATCDETSI [SEMA4F, O95754]
20 | below the threshold | KPDKQEEFYA [SDC3, O75056]

molecular target: GRIP2_4, Q9C0E4; assay: holdup assay; set-up: key: below the threshold = too weak to quantify, mostly under pKd 3.1 to 4; conditions: plain residues with an end cap or a label only (N-terminal biotin on a linker: ado-ado)
Sequence (Q9C0E4 446-548): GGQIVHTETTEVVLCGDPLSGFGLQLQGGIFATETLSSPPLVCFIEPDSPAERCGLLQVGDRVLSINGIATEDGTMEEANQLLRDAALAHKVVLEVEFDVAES

Row | pKd | Binder
21 | below the threshold | PLATCDETSI [SEMA4F, O95754]
22 | below the threshold | KPDKQEEFYA [SDC3, O75056]

molecular target: HTRA1, Q92743; assay: holdup assay; set-up: key: below the threshold = too weak to quantify, mostly under pKd 3.1 to 4; conditions: plain residues with an end cap or a label only (N-terminal biotin on a linker: ado-ado)
Sequence (Q92743 360-477): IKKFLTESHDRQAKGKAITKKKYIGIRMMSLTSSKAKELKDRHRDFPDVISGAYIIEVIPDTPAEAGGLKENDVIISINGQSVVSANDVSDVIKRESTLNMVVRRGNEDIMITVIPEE

Row | pKd | Binder
23 | 3.89 | PLATCDETSI [SEMA4F, O95754]
24 | 4.9 | KPDKQEEFYA [SDC3, O75056]

molecular target: Inadl_4, Q8NI35; assay: holdup assay; set-up: key: below the threshold = too weak to quantify, mostly under pKd 3.1 to 4; conditions: plain residues with an end cap or a label only (N-terminal biotin on a linker: ado-ado)
Sequence (Q8NI35 547-651): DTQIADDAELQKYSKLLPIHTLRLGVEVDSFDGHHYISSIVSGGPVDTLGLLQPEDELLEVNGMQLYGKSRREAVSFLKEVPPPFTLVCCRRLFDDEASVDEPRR

Row | pKd | Binder
25 | below the threshold | PLATCDETSI [SEMA4F, O95754]
26 | below the threshold | KPDKQEEFYA [SDC3, O75056]

molecular target: Inadl_6, Q8NI35; assay: holdup assay; set-up: key: below the threshold = too weak to quantify, mostly under pKd 3.1 to 4; conditions: plain residues with an end cap or a label only (N-terminal biotin on a linker: ado-ado)
Sequence (Q8NI35 1058-1167): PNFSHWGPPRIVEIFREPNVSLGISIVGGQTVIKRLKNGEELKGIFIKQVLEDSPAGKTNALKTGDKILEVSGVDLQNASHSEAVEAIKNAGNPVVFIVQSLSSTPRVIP

Row | pKd | Binder
27 | below the threshold | PLATCDETSI [SEMA4F, O95754]
28 | below the threshold | KPDKQEEFYA [SDC3, O75056]

molecular target: MAGI2_5, Q86UL8; assay: holdup assay; set-up: key: below the threshold = too weak to quantify, mostly under pKd 3.1 to 4; conditions: plain residues with an end cap or a label only (N-terminal biotin on a linker: ado-ado)
Sequence (Q86UL8 915-1017): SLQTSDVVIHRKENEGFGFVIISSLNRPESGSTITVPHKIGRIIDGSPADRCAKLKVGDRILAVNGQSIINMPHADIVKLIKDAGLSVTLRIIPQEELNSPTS

Row | pKd | Binder
29 | below the threshold | PLATCDETSI [SEMA4F, O95754]
30 | below the threshold | KPDKQEEFYA [SDC3, O75056]

molecular target: MAGI2_6, Q86UL8; assay: holdup assay; set-up: key: below the threshold = too weak to quantify, mostly under pKd 3.1 to 4; conditions: plain residues with an end cap or a label only (N-terminal biotin on a linker: ado-ado)
Sequence (Q86UL8 1141-1229): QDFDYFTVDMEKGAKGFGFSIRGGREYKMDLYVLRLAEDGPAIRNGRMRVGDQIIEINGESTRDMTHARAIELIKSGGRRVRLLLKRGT

Row | pKd | Binder
31 | 3.87 | PLATCDETSI [SEMA4F, O95754]
32 | below the threshold | KPDKQEEFYA [SDC3, O75056]

molecular target: MAST1, Q9Y2H9; assay: holdup assay; set-up: key: below the threshold = too weak to quantify, mostly under pKd 3.1 to 4; conditions: plain residues with an end cap or a label only (N-terminal biotin on a linker: ado-ado)
Sequence (Q9Y2H9 962-1065): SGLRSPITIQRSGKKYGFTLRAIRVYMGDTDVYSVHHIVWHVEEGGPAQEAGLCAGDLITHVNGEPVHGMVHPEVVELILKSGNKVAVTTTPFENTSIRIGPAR

Row | pKd | Binder
33 | 4.64 | PLATCDETSI [SEMA4F, O95754]
34 | 3.64 | KPDKQEEFYA [SDC3, O75056]

molecular target: PDLIM1, O00151; assay: holdup assay; set-up: key: below the threshold = too weak to quantify, mostly under pKd 3.1 to 4; conditions: plain residues with an end cap or a label only (N-terminal biotin on a linker: ado-ado)
Sequence (O00151 1-87): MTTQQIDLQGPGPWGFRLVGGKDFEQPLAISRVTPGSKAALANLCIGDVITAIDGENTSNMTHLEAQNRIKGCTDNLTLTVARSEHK

Row | pKd | Binder
35 | below the threshold | PLATCDETSI [SEMA4F, O95754]
36 | below the threshold | KPDKQEEFYA [SDC3, O75056]

molecular target: T9, PDZD7_3, Q9H5P4; assay: holdup assay; set-up: key: below the threshold = too weak to quantify, mostly under pKd 3.1 to 4; conditions: plain residues with an end cap or a label only (N-terminal biotin on a linker: ado-ado)

Row | pKd | Binder
37 | 4.43 | PLATCDETSI [SEMA4F, O95754]
38 | below the threshold | KPDKQEEFYA [SDC3, O75056]

molecular target: SCRIB_2, Q14160; assay: holdup assay; set-up: key: below the threshold = too weak to quantify, mostly under pKd 3.1 to 4; conditions: plain residues with an end cap or a label only (N-terminal biotin on a linker: ado-ado)
Sequence (Q14160 857-960): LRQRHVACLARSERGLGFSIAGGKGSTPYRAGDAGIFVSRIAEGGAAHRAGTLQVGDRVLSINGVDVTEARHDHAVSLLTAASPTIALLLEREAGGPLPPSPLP

Row | pKd | Binder
39 | 4.39 | PLATCDETSI [SEMA4F, O95754]
40 | below the threshold | KPDKQEEFYA [SDC3, O75056]

molecular target: T10, SHANK1, Q9Y566; assay: holdup assay; set-up: key: below the threshold = too weak to quantify, mostly under pKd 3.1 to 4; conditions: plain residues with an end cap or a label only (N-terminal biotin on a linker: ado-ado)

Row | pKd | Binder
41 | 3.87 | PLATCDETSI [SEMA4F, O95754]
42 | below the threshold | KPDKQEEFYA [SDC3, O75056]

molecular target: T11, SNTB1, Q13884; assay: holdup assay; set-up: key: below the threshold = too weak to quantify, mostly under pKd 3.1 to 4; conditions: plain residues with an end cap or a label only (N-terminal biotin on a linker: ado-ado)

Row | pKd | Binder
43 | 4.51 | PLATCDETSI [SEMA4F, O95754]
44 | below the threshold | KPDKQEEFYA [SDC3, O75056]

molecular target: T12, SYNJ2BP, P57105; assay: holdup assay; set-up: key: below the threshold = too weak to quantify, mostly under pKd 3.1 to 4; conditions: plain residues with an end cap or a label only (N-terminal biotin on a linker: ado-ado)

Row | pKd | Binder
45 | 4.62 | PLATCDETSI [SEMA4F, O95754]
46 | below the threshold | KPDKQEEFYA [SDC3, O75056]

molecular target: T13, TJP3_3, O95049; assay: holdup assay; set-up: key: below the threshold = too weak to quantify, mostly under pKd 3.1 to 4; conditions: plain residues with an end cap or a label only (N-terminal biotin on a linker: ado-ado)

Row | pKd | Binder
47 | below the threshold | PLATCDETSI [SEMA4F, O95754]
48 | below the threshold | KPDKQEEFYA [SDC3, O75056]

— publication PMC9482650, “Quantitative fragmentomics allow affinity mapping of interactomes” (Nature Communications, 2022)
